Assays:
[1] = tested on: intracellular cAMP concentration, HEK 293 cells; assay: Intracellular cAMP changes in HEK 293 cells transiently transfected with CPM-FF Luc/RIIβB (pBFB141); format: cell-based
Method: Cells were cultured in 60 ml in DMEM/F12 with HEPES buffer (Invitrogen) with 10% FBS at 37° C. with 5% CO2.
The ORF encoding the CPM-FF Luc/RIIβB based cAMP biosensor with X/Y linker lengths of (X=10, Y=0) was transferred to Flexi vector pF4K (Flexi vector system; Promega Corp.). The resultant plasmid construct (pBFB141) utilizes an upstream CMV promoter for expression of the associated cAMP biosensor in mammalian cells.
Cells were transfected with TransIt®-LT1 Reagent (MIRUS) using 0.3 μl TransIt®-LT1 reagent and 0.15 μg DNA per well of a 96 well plate. Cells were allowed to grow overnight and were assayed the next day.
Approximately 1 day after transfection, cells were removed from the incubator and equilibrated to room temperature. A 5 μl aliquot of 100 mM Luciferin EF was added to a total of 90 μl of cell culture plus transfection reagent to give a final concentration of approximately 5 mM luciferin. Cells were then incubated at room temperature for at least 90 minutes. After 90 minutes at room temperature, baseline measurements of luminescence were measured using a 96 well Veritas Luminometer (Turner Biosystems; integration time of 0.5 seconds per well). Cells were then induced with 10 μM isopreterenol (CalBiochem), 50 mM forskolin (Sigma) or not induced (0.1% DMSO, Sigma) and luminescence was measured continuously for about 30 minutes. After 30 minutes, […] (Sigma) was added to cells with isopreterenol and 0.1% DMSO was added to all other samples. Luminescence was then measured continuously for the next 30 minutes. A final addition of 50 μM forskolin was added to the isopreterenol/propranolol sample and 0.1% DMSO was added to all other samples. Luminescence was then measured continuously for the next half hour. Samples were measured in sets of 12 replicates. 10× stocks of isopreterenol, propranolol, forskolin and DMSO were made in 1×PBS (Invitrogen).

[2] = tested on: intracellular cAMP concentration, HEK 293 cells; assay: Intracellular cAMP changes in HEK293 cells with CPM-hRL Luc/RIIβB biosensors (isopreterenol, propranolol, forskolin); format: cell-based
Method: Cells were cultured in 2 mL DMEM/F12 with HEPES buffer (Invitrogen) and 10% FBS at 37° C. with 5% CO2 in a 6 well plate. Three of the constructs described in Example XVII were used to detect intracellular changes of cAMP concentrations. The constructs used were: pBFB277, pBFB279 and pBFB287. HEK293 cells stably expressing CPM91-hRL/RIIβB (ORF derived from 201325.44.H6 were also used in these experiments. HEK293 cells were transfected with TransIt®-LT1 Reagent (MIRUS) using 6 μL TransIt®-LT1 reagent and 2 μg DNA (pBFB277, pBFB279 and pBFB287) per well of a 6 well plate. Cells were allowed to grow overnight and were assayed the next day. Approximately 1 day after transfection, cells were trypsinized, resuspended in fresh DMEM/F12 with HEPES buffer (Invitrogen) with 1% FBS and plated in a 96 well plate at approximately 10,000 cells per well. Alternatively, a HEK293 cell line stably expressing CP91-hRL/RIIβB was plated in a 96 well plate at approximately 10,000 cells per well. A 10 μL aliquot of 600 μM EnduRen was added to a total of 100 μL of cell culture to give a final concentration of approximately […]. Cells were then incubated at 37° C. with 5% CO2. After 5 hours, the plate was removed from the incubator and allowed to cool to room temperature for at least 20 minutes. After 20 minutes, baseline measurements of luminescence were measured using a 96 well Veritas Luminometer (Turner Biosystems; integration time of 0.5 seconds per well). Cells were then induced with 10 μM isopreterenol (CalBiochem), 50 μM forskolin (Sigma) or not induced (0.1% DMSO, Sigma) and luminescence was measured continuously for about 30 minutes. After 30 minutes, 10 μM propranolol (Sigma) was added to cells already induced with isopreterenol and 0.1% DMSO was added to all other samples. Luminescence was then measured continuously for the next 30 minutes. A final addition of 50 μM forskolin was added to the isopreterenol/propranolol sample and 0.1% DMSO was added to all other samples. Luminescence was then measured continuously for the next half hour. Samples were measured in sets of 4-6 replicates. 10× stocks of isopreterenol, propranolol, forskolin and DMSO were made in DMEM/F12 with HEPES buffer (Invitrogen) and 1% FBS.

[3] = tested on: cyclic AMP dependent protein kinase catalytic subunit; settings: cited from earlier work
[4] = CPM hRL / GAF A domain biosensor, luminescence with or without exogenous cAMP (reticulocyte lysate); format: biochemical
Method: An additional type of cAMP biosensor was constructed using a circularly permuted Renilla luciferase (hRL) and a GAF domain. The plasmid DNA construct encoding the following fusion protein: Met-(hRL 92-311)-[…]-(GAF A domain from Trypanosoma brucei PDE; Genbank AF192755 amino acids 241-375)-[…]-A-(hRL 3-91)-Val (SEQ ID NO:185) [clone pBFB232]. Following expression using the T7 Coupled Reticulocyte Lysate System, luminescence activity was measured in the presence or absence of exogenous cAMP. In the presence of cAMP, the measured activity was 7595 RLU; in the absence of cAMP, the measured activity was 298 RLU (about a 25 fold change). […] This type of reagent may allow the monitoring of changes in cAMP concentration in living cells, and it also may provide distinct advantages over existing FRET-based cAMP biosensors in that assay format. Moreover, since the GAF domain is a highly conserved fold in nature responsible for binding a wide range of molecules, it is likely that additional types of CPM hRL biosensors could be made using this fold.

[5] = Nonpermuted Oplophorus luciferase/RIIβB insertion constructs, luminescence with or without exogenous cAMP; format: biochemical; settings: for luminescence, + exogenous cAMP: addition of exogenous cAMP to 50 μM final concentration; for luminescence, − no exogenous cAMP: no exogenous cAMP was added
Method: Protein was expressed from these constructs using the TnT T7 Coupled Reticulocyte Lysate System. Following expression, 9 μL of TNT reaction was mixed with 1 μL 1 mM cAMP stock or H2O, and the reactions were allowed to incubate at room temperature for approximately 15 minutes. Following incubation, 10 μL of 2× buffer (300 mM HEPES, pH=8.0, 200 mM thiourea) was added to each reaction, and luminescence was measured from the resulting 20 μL of solution following addition of 100 μL of Renilla Assay Reagent using a Turner 20/20N luminometer (1 second integration time).

## CC(C)NCC(O)c1ccc(O)c(O)c1 (stereo not shown) [isopreterenol]
[1]; HEK 293 cells, pBFB141, 10 μM isopreterenol or 50 mM forskolin (so in the source), treatment alone, room temperature
  increase in light output from transfected cells: approximately 2 fold
[2]; HEK293 cells stably expressing CPM91-hRL/RIIβB, isopreterenol and forskolin treatment
  increase in light output: about 5 fold
[2]; HEK 293 transiently transfected with CPM-hRL Luc/RIIβB (X=4, Y=20) constructs, 10 μM isopreterenol or 50 μM forskolin alone
  increase in light output from transfected cells: approximately 2 fold

## LRRASLG
[3]
  decrease in activity on phosphorylation by cyclic AMP dependent protein kinase: 30%

## RRFS: Photinus pyralis luciferase V217R mutant with site RRFS (SEQ ID NO:117), Sala-Newby et al.
[3]
  decrease in activity on phosphorylation by cyclic AMP dependent protein kinase: up to 80%

## Wild type luciferase: wild type (firefly) luciferase control
[1]; control constructs in HEK 293 cells
  response to known modulators of intracellular cAMP concentration: no specific response

B1: pBFB232: CPM hRL 92-311/3-91 with GAF A domain from Trypanosoma brucei PDE (SEQ ID NO:185) (protein)
chain: MYRLLDHYKYLTAWFELLNLPKKIIFVGHDWGACLAFHYSYEHQDKIKAIVHAESVVDVIESWDEWPDIEEDIALIKSEEGEKMVLENNFFVETMLPSKIMRKLEPEEFAAYLEPFKEKGEVRRPTLSWPREIPLVKGGKPDVVQIVRNYNAYLRASDDLPKMFIESDPGFFSNAIVEGAKKFPNTEFVKVKGLHFSQEDAPDEMGKYIKSFVERVLKNEQGSSGGSGGSGGGSGGSGGSGSIMNTVKSLTESARCSLFLVRGDVLEAHFEDGNVVTIPRGAGIAGYVAQTGETVNIVDAYADDRFNREVDKATGYRTKTILCMPVMYEGTIVAVAQLINKLDLTTESGLRLPRVFGKRDEELFQTFSMFAGASLRGSGGSGGSGGTSGGSGGSSGASKVYDPEQRKRMITGPQWWARCKQMNVLDSFINYYDSEKHAENAVIFLHGNAASSYLWRHVVPHIEPVARCIIPDLIGMGKSGKSGNGSV
[4]; exogenous cAMP
  measured activity in the presence of cAMP: 7595 RLU
[4]; no cAMP
  measured activity in the absence of cAMP: 298 RLU
[4]; presence vs absence of cAMP
  fold change with cAMP: ~25 fold

B2: pBFB401: Met-(OpLuc 1-84)-GSSGGSGGSG-R2betaB-GSSGGSGGSG-(OpLuc 85-169) (protein)
chain: MFTLADFVGDWQQTAGYNQDQVLEQGGLSSLFQALGVSVTPIQKVVLSGENGLKADIHVIIPYEGLSGFQMGLIEMIFKVVYPVDGSSGGSGGSGMYESFIESLPFLKSLEFSERLKVVDVIGTKVYNDGEQIIAQGDSADSFFIVESGEVKITMKRKGKSEVEENGAVEIARCSRGQYFGELALVTNKPRAASAHAIGTVKCLAMDVQAFERLLGPCMEIMKRNIATYEEQLVALFGTNMDIVGSSGGSGGSGDHHFKIILHYGTLVIDGVTPNMIDYFGRPYPGIAVFDGKQITVTGTLWNGNKIYDERLINPDGSLLFRVTINGVTGWRLCENILA
[5]
  luminescence, + exogenous cAMP: 6,124
  luminescence, − no exogenous cAMP: 2,304

B3: pBFB402: OpLuc 1-84 / R2betaB / OpLuc 85-169, 20 aa linkers (SEQ ID NO: 195) (protein)
chain: MFTLADFVGDWQQTAGYNQDQVLEQGGLSSLFQALGVSVTPIQKVVLSGENGLKADIHVIIPYEGLSGFQMGLIEMIFKVVYPVDGSSGGSGGSGGGSGGSGGSGMYESFIESLPFLKSLEFSERLKVVDVIGTKVYNDGEQIIAQGDSADSFFIVESGEVKITMKRKGKSEVEENGAVEIARCSRGQYFGELALVTNKPRAASAHAIGTVKCLAMDVQAFERLLGPCMEIMKRNIATYEEQLVALFGTNMDIVGSGGSGGSGGTSGGSGGSSGDHHFKIILHYGTLVIDGVTPNMIDYFGRPYPGIAVFDGKQITVTGTLWNGNKIYDERLINPDGSLLFRVTINGVTGWRLCENILA
[5]
  luminescence, + exogenous cAMP: 62,264
  luminescence, − no exogenous cAMP: 8,568

B4: pBFB398: Met-(OpLuc 1-50)-GSSGGSGGSG-R2betaB-GSSGGSGGSG-(OpLuc 51-169) (protein)
chain: MFTLADFVGDWQQTAGYNQDQVLEQGGLSSLFQALGVSVTPIQKVVLSGENGSSGGSGGSGMYESFIESLPFLKSLEFSERLKVVDVIGTKVYNDGEQIIAQGDSADSFFIVESGEVKITMKRKGKSEVEENGAVEIARCSRGQYFGELALVTNKPRAASAHAIGTVKCLAMDVQAFERLLGPCMEIMKRNIATYEEQLVALFGTNMDIVGSSGGSGGSGGLKADIHVIIPYEGLSGFQMGLIEMIFKVVYPVDDHHFKIILHYGTLVIDGVTPNMIDYFGRPYPGIAVFDGKQITVTGTLWNGNKIYDERLINPDGSLLFRVTINGVTGWRLCENILA
[5]
  luminescence, + exogenous cAMP: 4,917
  luminescence, − no exogenous cAMP: 291

B5: pBFB399: OpLuc 1-50 / R2betaB / OpLuc 51-169, 20 aa linkers (SEQ ID NO: 192) (protein)
chain: MFTLADFVGDWQQTAGYNQDQVLEQGGLSSLFQALGVSVTPIQKVVLSGENGSSGGSGGSGGGSGGSGGSGMYESFIESLPFLKSLEFSERLKVVDVIGTKVYNDGEQIIAQGDSADSFFIVESGEVKITMKRKGKSEVEENGAVEIARCSRGQYFGELALVTNKPRAASAHAIGTVKCLAMDVQAFERLLGPCMEIMKRNIATYEEQLVALFGTNMDIVGSGGSGGSGGTSGGSGGSSGGLKADIHVIIPYEGLSGFQMGLIEMIFKVVYPVDDHHFKIILHYGTLVIDGVTPNMIDYFGRPYPGIAVFDGKQITVTGTLWNGNKIYDERLINPDGSLLFRVTINGVTGWRLCENILA
[5]
  luminescence, + exogenous cAMP: 38,051
  luminescence, − no exogenous cAMP: 356

B6: pBFB400: Met-(OpLuc 1-84)-GSTG-R2betaB-GSSG-(OpLuc 85-169) (protein)
chain: MFTLADFVGDWQQTAGYNQDQVLEQGGLSSLFQALGVSVTPIQKVVLSGENGLKADIHVIIPYEGLSGFQMGLIEMIFKVVYPVDGSTGMYESFIESLPFLKSLEFSERLKVVDVIGTKVYNDGEQIIAQGDSADSFFIVESGEVKITMKRKGKSEVEENGAVEIARCSRGQYFGELALVTNKPRAASAHAIGTVKCLAMDVQAFERLLGPCMEIMKRNIATYEEQLVALFGTNMDIVGSSGDHHFKIILHYGTLVIDGVTPNMIDYFGRPYPGIAVFDGKQITVTGTLWNGNKIYDERLINPDGSLLFRVTINGVTGWRLCENILA
[5]
  luminescence, + exogenous cAMP: 10,369
  luminescence, − no exogenous cAMP: 6,387
